Assay results published in patent US20140274874A1 (Amgen, published 2014).

T1: MMP2 (human pro-MMP2 activated with APMA) (human, UniProt P08253 30-660)
T1 sequence (looked up): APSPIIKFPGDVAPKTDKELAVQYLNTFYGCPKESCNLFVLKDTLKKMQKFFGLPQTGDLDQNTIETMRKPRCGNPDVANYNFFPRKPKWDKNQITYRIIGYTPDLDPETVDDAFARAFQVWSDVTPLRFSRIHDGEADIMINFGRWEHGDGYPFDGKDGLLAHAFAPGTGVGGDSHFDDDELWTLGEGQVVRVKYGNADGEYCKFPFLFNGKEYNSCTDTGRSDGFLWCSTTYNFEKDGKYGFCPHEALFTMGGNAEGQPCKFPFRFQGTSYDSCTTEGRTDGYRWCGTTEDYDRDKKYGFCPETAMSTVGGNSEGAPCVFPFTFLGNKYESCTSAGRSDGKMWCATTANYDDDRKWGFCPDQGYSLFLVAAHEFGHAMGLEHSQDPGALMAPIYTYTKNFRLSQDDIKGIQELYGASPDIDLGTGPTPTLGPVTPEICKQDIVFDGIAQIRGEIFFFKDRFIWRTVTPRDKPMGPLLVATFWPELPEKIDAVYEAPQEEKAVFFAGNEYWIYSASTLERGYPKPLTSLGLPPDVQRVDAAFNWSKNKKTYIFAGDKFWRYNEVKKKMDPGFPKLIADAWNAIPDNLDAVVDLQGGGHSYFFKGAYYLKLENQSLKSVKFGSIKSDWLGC


Tests used:
Test in all cases: cell-based or functional assay
[1] = molecular target: T1, MMP2 (human pro-MMP2 activated with …)
[2] = molecular target: catalytic domain of human MMP9 (human, UniProt P14780 107-444, limits assumed)
Sequence of catalytic domain of human MMP9 (P14780 107-444 limits assumed): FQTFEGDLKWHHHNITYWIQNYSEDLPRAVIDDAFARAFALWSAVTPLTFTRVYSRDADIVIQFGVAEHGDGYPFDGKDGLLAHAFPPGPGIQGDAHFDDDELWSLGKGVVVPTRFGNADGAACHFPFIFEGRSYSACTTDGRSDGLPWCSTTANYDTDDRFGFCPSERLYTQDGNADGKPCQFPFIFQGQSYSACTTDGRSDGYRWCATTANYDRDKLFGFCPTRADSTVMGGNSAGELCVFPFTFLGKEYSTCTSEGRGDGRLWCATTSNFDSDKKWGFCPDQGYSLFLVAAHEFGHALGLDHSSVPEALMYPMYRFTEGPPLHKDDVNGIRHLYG

[3] = molecular target: MMP13 (active MMP13, or pro-MMP-13 activated with APMA) (UniProt P45452 20-471, limits assumed)

Row | Binder | MMP2 IC50 [1] | MMP9 IC50 [2] | MMP13 IC50 [3]
1 | TIMP-3 mutein P56N, G58T (other) CTCSPSHPQDAFCNSDIVIRAKVVGKKLVKEGNFTTLVYTIKQMKMYRGFTKMPHVQYIHTEASESLCGLKLEVNKYQYLLTGRVYDGKMYTGLCNFVERWDQLTLSQRKGLNYRYHLGCNCKIKSCYYLPCFVTSKNECLWTDMLSNFGYPGYQSKHYACIRQKGGYCSWYRGWAPPDKSIINATDP | 1000 pM | 2300 pM | 3100 pM
2 | TIMP-3 mutein K45S, F57N (other) CTCSPSHPQDAFCNSDIVIRASVVGKKLVKEGPNGTLVYTIKQMKMYRGFTKMPHVQYIHTEASESLCGLKLEVNKYQYLLTGRVYDGKMYTGLCNFVERWDQLTLSQRKGLNYRYHLGCNCKIKSCYYLPCFVTSKNECLWTDMLSNFGYPGYQSKHYACIRQKGGYCSWYRGWAPPDKSIINATDP | 300 pM | 4000 pM | 
3 | TIMP-3 mutein F57N (other) CTCSPSHPQDAFCNSDIVIRAKVVGKKLVKEGPNGTLVYTIKQMKMYRGFTKMPHVQYIHTEASESLCGLKLEVNKYQYLLTGRVYDGKMYTGLCNFVERWDQLTLSQRKGLNYRYHLGCNCKIKSCYYLPCFVTSKNECLWTDMLSNFGYPGYQSKHYACIRQKGGYCSWYRGWAPPDKSIINATDP | 500 pM | 4600 pM | 500 pM

Other lines, results leading:

Row | MMP2 IC50 [1] | MMP9 IC50 [2] | MMP13 IC50 [3] | Binder
4 | 600 pM | 1000 pM | 900 pM | wild-type TIMP-3 (native human tissue inhibitor of metalloproteinase 3) (other) CTCSPSHPQDAFCNSDIVIRAKVVGKKLVKEGPFGTLVYTIKQMKMYRGFTKMPHVQYIHTEASESLCGLKLEVNKYQYLLTGRVYDGKMYTGLCNFVERWDQLTLSQRKGLNYRYHLGCNCKIKSCYYLPCFVTSKNECLWTDMLSNFGYPGYQSKHYACIRQKGGYCSWYRGWAPPDKSIINATDP
5 | 800 pM | 500 pM | 2200 pM | TIMP-3 mutein T63N, K65T (other) CTCSPSHPQDAFCNSDIVIRAKVVGKKLVKEGPFGTLVYNITQMKMYRGFTKMPHVQYIHTEASESLCGLKLEVNKYQYLLTGRVYDGKMYTGLCNFVERWDQLTLSQRKGLNYRYHLGCNCKIKSCYYLPCFVTSKNECLWTDMLSNFGYPGYQSKHYACIRQKGGYCSWYRGWAPPDKSIINATDP
